Experimental data as given in patent publication US20190367619A1 (ARGENX, published 2019).
Substitutions are numbered along the chain they refer to.

T1: human galectin-10-His (human)
T1 construct: The last M of the tag may be Met1 of galectin-10; also called humanGal10-His; hGal10
T1 chain: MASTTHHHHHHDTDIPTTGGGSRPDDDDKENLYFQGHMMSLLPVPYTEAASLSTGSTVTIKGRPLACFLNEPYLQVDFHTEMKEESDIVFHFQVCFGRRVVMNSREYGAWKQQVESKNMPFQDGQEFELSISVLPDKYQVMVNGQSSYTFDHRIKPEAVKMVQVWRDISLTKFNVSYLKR

T2: cynomolgus galectin-10-His, YRT isoform (cynomolgus)
T2 construct: also called cynoGal10-YRT; not shown: His tag
T2 chain: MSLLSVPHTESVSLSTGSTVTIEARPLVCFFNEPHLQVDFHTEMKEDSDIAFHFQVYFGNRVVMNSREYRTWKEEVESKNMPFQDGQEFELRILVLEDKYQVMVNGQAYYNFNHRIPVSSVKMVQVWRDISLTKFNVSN

T3: recombinant human galectin-10, TEV-cleaved (human, UniProt Q05315 1-142)
T3 sequence: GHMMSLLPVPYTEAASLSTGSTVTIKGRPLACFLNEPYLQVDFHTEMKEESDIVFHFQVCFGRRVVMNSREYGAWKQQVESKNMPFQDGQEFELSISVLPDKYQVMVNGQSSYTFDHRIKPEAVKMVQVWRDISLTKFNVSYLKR

T4: human galectin-10-His (recombinant human galectin-10 with TEV-cleavable N-terminal His-tag) (human)
T4 construct: SEC-MALLS: dimer in solution; also called Gal10-His; humanGal10-His
T4 chain: T1 chain

T5: TEV-cleaved wild-type recombinant human galectin-10 (soluble, in Fab complexes, or as recombinant galectin-10 … (human, UniProt Q05315 1-142))
T5 sequence: T3 sequence

B1: 10A06 mouse IgG1 (antibody, V domains shown)
VH: QVQLVESGGGLVQPGGSLRLSCAASGFTFGNYDMSWVRQAPGKGPEWVSDINSGGGSTYYADSVKGRFTISRDNAKNSLLLQMNSLKPEDTAVYYCATGYTGYYYWGQGTQVTVSS
VL: QTVVTQEPSLSVSPGGTVTLTCGLSSGSVTSSNYPAWYQQTPGQAPRALIYSINSRHSGVPDRFSGSISGNKAALTITGAQAEDEADYYCTLYMGTGSNNVVFGGGTHLTVL
notes: VH and VL cloned in frame with mouse IgG1 constant domains; also called 10A06 mIgG1
B2: 2F09 mouse IgG1 (antibody, V domains shown)
VH: QVQVQESGPGLVKPSQTLSLTCTVSGGSITTNYFYWSWIRQSPGKGLEWIGAIAYSGRTYYSPSLKSRTSISRDTSNNQFTLQLSSVTPEDTAVYYCARGPKGLASYYDYWGQGTQVTVSS
VL: SSALTQPSAVSVSLGQTARITCQGGNFGYYYVSWYQQKPGQAPVLVIYRDSGRPSGIPERFSGSSSGDTATLTISGAQAEDEADYYCQSGSSSDNTVFGGGTHLTVL
notes: VH on mouse IgG1 heavy chain constant domains (CH1-CH2-CH3), VL on mouse lambda light chain constant domain; also called 2F09 mIgG1
B3: 6A05 mouse IgG1 (antibody, V domains shown)
VH: EVQLVESGGGLVQPGGSLRLSCAASGFTFSSYAMSWVRQAPGKGLEWVSAINSGGGWTSYVDSVKGRFTISRDNAKNTLYLQMDSLKPEDTAVYYCTKYSGPELNTQYGMDYWGKGTLVTVSS
VL: B2 VL with S1N, S2F, A3M, Y29S, V32A
notes: also called 6A05 mIgG1
B4: 11F12 mouse IgG1 (antibody, V domains shown)
VH: QVQLQESGGGLVQPGGSLRLSCAASGFTFSTNYMNWVRQAPGKGLEWVSGITSGGGRTYYADSVKGRFTISRDNAKNTLYLQMNSLKPEDTALYYCARTDHAWLDAWGQGTLVTVSS
VL: HSAVTQPPSVSGTLGKTVTISCAGTSSDVGYGNYVSWYQHLPGTAPKLLIYAVSTRASGVPDRFSGSKSGNTASLTISGLQSEDEGDYYCASYSVRNNVVFGGGTRLTVL
notes: VH and VL cloned in frame with mouse IgG1 constant domains; also called 11F12 mIgG1

Key:
human galectin-10-His [1] = target: T1, human galectin-10-His; test: SPR Biacore T3000, mouse IgG1 captured
Protocol: The binding capacity of the mouse IgG1 antibody panel to galectin-10 was analysed on Biacore T3000. For this purpose, a capture approach was used, where a fixed concentration (1.5 μg/mL) of the mouse IgG1 clone was captured by polyclonal anti-mouse Fc antibodies immobilized on CM5 Chip to reach a binding signal around 150 RU. Then a serial dilution of human and cynomolgus WGS isoform of galectin-10-His (serial dilution, 1 over 2 from 5 μg/mL) diluted in HBS-EP pH7.4 was injected. Raw data were analysed via BIA evaluation software with a blank subtraction. The kd/KD and Rmax of each mAbs to galectin-10-His was determined using the Fit Kinetics simultaneous ka/kd/Binding with mass transfer/Local Rmax on BIA evaluation software.

human galectin-10-His [2] = target: T1, human galectin-10-His; test: ELISA, coated antigen 0.5 ug/mL
Protocol: (§1) In a similar setup to that used during the characterization of the scFv-human Fc molecules, the relative binding properties of the 7 mouse IgG1 antibodies were analyzed by ELISA. A Maxisorp plate was coated overnight with 0.5 μg/mL of human or cynomolgus WGS or YRT isoform of galectin-10-His. Then a serial dilution of each clone (from 100 nM, dilution 1/4, 12 points of dilutions) was incubated on coated galectin-10. After several washing steps, detection of the bound mouse IgG1 was carried out with an anti-mouse Fc-HRP antibody (DAMPO, Jackson ImmunoResearch, Catalog 715-035-150). Absorbance was measured at 450 nm (reference at 620 nm) with Tecan instrument. The raw data (OD values) were plotted on GraphPad Prism 7.01. The EC50 values for each antibody, calculated with a non-linear regression (log(agonist) vs. response Variable slope (four parameters)), are shown in the table below. Antibody 1D11 from the previous panel was included for comparison.

[3] = target: T2, cynomolgus galectin-10-His, YRT isoform; test: ELISA, coated antigen 0.5 ug/mL
Protocol: as §1

[4] = target: T3, recombinant human galectin-10, …; test: cell-based or functional assay
[5] = target: T3, recombinant human galectin-10, …; test: cell-based or functional assay; remark: listed apart in the source
[6] = target: T4, human galectin-10-His (recombinant …); test: BLI tandem on galectin-10-His; competitor: saturating 6A05 mIgG1 (10 ug/mL)
Protocol: (§2) In order to identify the galectin-10 binding sites of the different clones, an epitope mapping method (TANDEM), using the BLI technology, was established. Briefly, the galectin-10-His was captured on anti-HIS 1K sensor tips, before incubation with an excess of one antibody (called the “saturating” antibody) then directly transferred to a solution containing the “competitor” antibody at a suboptimal concentration. If the “saturating” and the competitor antibody bind to the same binding sites, no binding of “competitor” will be detected (expressed in nm shift).

[7] = target: T5, TEV-cleaved wild-type recombinant human …; test: cell-based or functional assay
[8] = target: T4, human galectin-10-His (recombinant …); test: BLI tandem on galectin-10-His; competitor: saturating 4E08 mIgG1 (10 ug/mL)
Protocol: as §2

[9] = target: T4, human galectin-10-His (recombinant …); test: BLI tandem on galectin-10-His; competitor: saturating 1C09 mIgG1 (10 ug/mL)
Protocol: as §2

[10] = target: T4, human galectin-10-His (recombinant …); test: BLI tandem on galectin-10-His; competitor: saturating 6E10 mIgG1 (10 ug/mL)
Protocol: as §2

[11] = target: T4, human galectin-10-His (recombinant …); test: BLI tandem on galectin-10-His; competitor: saturating 6B06 mIgG1 (10 ug/mL)
Protocol: as §2

[12] = target: T4, human galectin-10-His (recombinant …); test: BLI tandem on galectin-10-His; competitor: saturating 2F09 mIgG1 (10 ug/mL)
Protocol: as §2

[13] = target: T4, human galectin-10-His (recombinant …); test: SPR Biacore T3000, mouse IgG1 captured by anti-mouse Fc, galectin-10-His as analyte
Protocol: The binding capacity of the mouse IgG1 antibodies to galectin-10 was analyzed on Biacore T3000. For this purpose, a capture approach was set up. A CM5 Chip was coated with polyclonal anti-mouse Fc at 8000 RU, then a fixed concentration of the mouse IgG1 antibody panel (1.5 μg/mL), diluted in HBS-EP pH7.4, was captured to reach a binding signal around 150 RU. Finally, a serial dilution of galectin-10-His (serial dilution, 1 over 2 from 5 μg/mL) diluted in HBS-EP pH7.4 was injected. Raw data were analyzed via BIA evaluation software with a blank subtraction (4-3). The kd/KD and Rmax of each mAb to galectin-10-His was determined using the Fit Kinetics simultaneous ka/kd/Binding with mass transfer/Local Rmax on BIA evaluation software.

[14] = target: T4, human galectin-10-His (recombinant …); test: BLI tandem on galectin-10-His; competitor: saturating 2C07 mIgG1 (10 ug/mL)
Protocol: as §2

[15] = target: T4, human galectin-10-His (recombinant …); test: BLI tandem on galectin-10-His; competitor: saturating 6A08 mIgG1 (10 ug/mL)
Protocol: as §2

[16] = target: T4, human galectin-10-His (recombinant …); test: BLI tandem on galectin-10-His; competitor: saturating 1D11 mIgG1 (10 ug/mL)
Protocol: as §2

[17] = target: T4, human galectin-10-His (recombinant …); test: ELISA, mouse IgG1 on coated galectin-10-His (0.2 ug/mL)
Protocol: In a similar setup to that used during the characterization of the scFv-human Fc molecules, the relative binding affinities of the 10 mouse IgG1 antibodies were analyzed by ELISA. A Maxisorp plate was coated overnight with 0.2 μg/mL of galectin-10-His. Then a serial dilution of each clone (from 100 nM, dilution 1/4, 12 points of dilutions) was incubated on coated galectin-10. After several washing steps, detection of the bound mouse IgG1 was carried out with an anti-mouse Fc-HRP antibody. Absorbance was measured at 450 nm (reference at 620 nm) with Tecan instrument. A mouse IgG1 isotype control was used as negative control. A polyclonal anti-galectin-10 antibody was used as positive control for the coating of galectin-10. The raw data (OD values) were plotted on GraphPad Prism 7.01. The EC50 values for each antibody, calculated with a non-linear regression (log(agonist) vs. response Variable slope (four parameters)), are reported in Table 7 below.

[18] = target: T4, human galectin-10-His (recombinant …); test: BLI tandem on galectin-10-His; isotype control as saturating antibody (10 ug/mL)
Protocol: as §2

[19] = target: T4, human galectin-10-His (recombinant …); test: BLI tandem on galectin-10-His; competitor: saturating 6F06 mIgG1 (10 ug/mL)
Protocol: as §2

| Binder | Kd (human galectin-10-His [1]) [nM] | koff (human galectin-10-His [1]) [s⁻¹] | kon (human galectin-10-His [1]) [M⁻¹ s⁻¹] | EC50 (human galectin-10-His [2]) [nM] | OD values (human galectin-10-His [2]) [OD] | EC50 [3] [nM] | OD values [3] [OD] | 50% crystal dissolution (min), 50 uM [4] [min] | 90% crystal dissolution (min), 50 uM [4] [min] | 50% dissolution (min) of CLCs, antibody 50 uM [5] [min] | 90% dissolution (min) of CLCs, antibody 50 uM [5] [min] | binding signal (nm) [6] [nm] | 100% Solubilization of CLC (Conc uM) [7] [µM] | binding signal (nm) [8] [nm] | binding signal (nm) [9] [nm] | binding signal (nm) [10] [nm] | binding signal (nm) [11] [nm] | binding signal (nm) [12] [nm] | Kd [13] [nM] | koff [13] [s⁻¹] | further results |
| --- | --- | --- | --- | --- | --- | --- | --- | --- | --- | --- | --- | --- | --- | --- | --- | --- | --- | --- | --- | --- | --- |
| B1 | 0.9 | 0.0101 | 1.17e+07 | 0.63 | 0.3 | 0.06 | 3.38 | > 120 | > 120 | 44.5 | 86.6 | – | – | – | – | – | – | – | – | – | – |
| B2 | – | – | – | – | – | – | – | – | – | – | – | 0.12 | 10.7 | 0.1 | 0.04 | 0.03 | 0.03 | 0.03 | 0.3 | 0.00034 | binding signal (nm) [14]: 0.05 nm; binding signal (nm) [15]: 0.07 nm; binding signal (nm) [16]: 0.12 nm; Bmax [17]: 3.29 OD; EC50 [17]: 0.05 nM; binding signal (nm) [18]: 1.14 nm; binding signal (nm) [19]: 0.06 nm |
| B3 | – | – | – | – | – | – | – | – | – | – | – | 0.05 | 10.1 | -0.03 | 0 | -0.03 | 0 | 0.01 | 0.6 | 0.00483 | binding signal (nm) [14]: 0.01 nm; binding signal (nm) [15]: 0 nm; binding signal (nm) [16]: 0.04 nm; Bmax [17]: 1.74 OD; EC50 [17]: 0.07 nM; binding signal (nm) [18]: 1.02 nm; binding signal (nm) [19]: 0.02 nm |
| B4 | 0.7 | 0.00224 | 3.04e+06 | 4.83 | 2.7 | 0.21 | 3.35 | 65.4 | > 120 | 21.3 | 42.6 | – | – | – | – | – | – | – | – | – | – |
